The target of data set [1] is P05412. The data set is described as follows: thermal melt, homodimer (FIG. 4).
Data set [2] can be described thus: CD thermal melts, homodimer.
Data set [3] addresses P16220. The data set is described as follows: thermal melt, homodimerization (FIG. 3).

B1: c-Jun (unmodified) (protein)
chain: PLSPIDMESQERIKAERKRMRNRIAASKCRKRKLERIARLEEKVKTLKAQNSELASTANMLREQVAQLKQKVMNHVNSGCQLMLTQQLQTF
For the protein B1, the Tm entry in data set [1] was “homodimerization of unmodified c-Jun had a melting temperature of 29.4 °C”.

B2: C/EBP bZIP domain (GCN4-C/EBP chimeric protein) (protein)
chain: SEYQPSLFALNPMGFSPLDGSKSTNENVSASTSTAKPMVGQLIFDKFIKTEEDPGKAKKSVDKNSNEYRVRRERNNIAVRKSRDKAKQRNVETQQKVLELTSDNDRLRKRVEQLSRELDTLRGIFRQLPESSLVKAMGNCA
On to B2, for which the “Tm decrease in 50 mM KCl against 150 mM KCl” value in data set [2] is “less stable by 4 °C in 50 mM KCl compared with 150 mM KCl”.

B3: CREB (unmodified) (protein)
chain: MASSPALPTQPAEEAARKREVRLMKNREAARECRRKKKEYVKCLENRVAVLENQNKTLIEELKALKDLYCHKSD
In the case of B3, the Tm entry in data set [3] is “Tm=47 °C”.

The values are drawn from patent US6361968.
